Consider 5 substances from patent US8598127B2, “Peptides for inhibiting MDM2 function” (Korea Research Institute of Bioscience & Biotechnology, priority 2004, dated 2013).

Where no end group is shown, it is not given here.

For assay [1], the target named is T1, mdm2(3-109) (Homo sapiens, UniProt Q00987).
T1 construct: made in house; host or cells: E. coli BL21(DE3), pLM1 vector
Put plainly: Chemical shift perturbation experiment (15N-1H HSQC NMR titration of 15N-mdm2(3-109) with p53 TAD or fragment peptides). The assay is classed as binding. Conditions: 0.2 mM 15N-mdm2(3-109), 25° C.; for binding affinity to mdm2 as indicated by chemical shift perturbation: 15N-1H HSQC titration. How it is done:
All NMR data were measured using a Varian Unity INOVA 600 MHz NMR spectrometer at 5° C. and 25° C. ^15N—^1H HSQC (heteronuclear single quantum coherence spectroscopy) spectra were collected with spectral widths of 8000 Hz in the ^1H dimension and 1800 Hz in the ^15N dimension, and with 1024 data points in the t2 domain and 256 data points in the t1 domain.
Also, ^15N—^1H HSQC spectra were collected for the ^15N-labeled mdm2(3-109) protein, dissolved in a buffer solution of 25 mM Tris HCl (pH 7.5), 150 mM NaCl, 2 mM DTT, 0.1 mM PMSF, 0.1 mM EDTA, 0.1 mM benzamidine and 0.02% NaN3, at 0.2 mM of ^15N-mdm2(3-109) and 25° C.
First, HSQC spectra of ^15N-mdm2(3-109) in a free state were collected (FIG. 4). […] Chemical shift assignments of mdm2(3-109) in a free and bound states were performed using 3D NMR experiments, HNCA, HNCOCA, ^15N-edited TOCSY and ^15N-edited NOESY spectrum analysis.
2D ^15N—^1H HSQC spectra were collected for the free (unbound) form of purified ^15N-labeled mdm2(3-109).

Assay [2] deals with Carcinoma cell lines, MCF-7, HCT 11 6, A549 and SNU-71. In words: MTT assay, induction of apoptosis of cancer cells. The class given is cell-based. Conditions: cancer cells treated for 18 hrs. The procedure: Carcinoma cell lines, MCF-7, HCT 11 6, A549 and SNU-71, were cultured in RPMI 1640 medium supplemented with 10% FBS and 100 U/ml penicillin/streptomycin in a humidified 5% CO2 incubator (Gibco-BRL, UK) at 37° C. The cultured cancer cells were treated for 18 hrs with HIV-1 Tat(48-60)-p53 TAD(50-54), an alanine-substituted peptide of SEQ ID NO. 7 and a trytophane-substituted peptide of SEQ ID NO. 11. Then, induction of apoptosis of cancer cells was determined by an MTT assay using the tetrazolium salt, 3-(4,5-dimethylthiazol-2-yl)-2,5-diphenyltetrazolium bromide (MTT). In the MTT assay, after the cancer cells were incubated for 2 hrs in RPMI 1640 medium supplemented with 10% FBS and 0.5 mg/ml MTT, the medium was removed, and 100 μl of DMSO was added.
Four carcinoma cell lines were treated for 18 hrs with HIV-1 Tat(48-60)-p53 TAD(50-54), which was prepared by linking a cell permeable peptide HIV-1 Tat(48-60) consisting of amino acid residues 48-60 of the HIV-1 Tat protein of SEQ ID NO. 22 to the N-terminal end of p53 TAD(50-54), and alanine-substituted and trytophane-substituted peptides thereof. Then, the induction of apoptosis of cancer cells was determined by an MTT assay, and the cancer cells were microscopically observed.

As for “p53 TAD(1-73): recombinant p53 TAD domain corresponding to residues 1-73 of the TAD of human p53”, in assay [1], the “binding affinity to mdm2 as indicated by chemical shift perturbation” value is given as “high affinity”.

Consider DWEQWW, for which, in assay [2], the “effect on apoptosis induction in cancer cells” value (from here on “effect on apoptosis induction”) is “greatly higher activity in inducing apoptosis than the native DIEQWF”.

On to DIEQWF-NH2 [p53 TAD(49-54), DIEQWF], for which the “effect on apoptosis induction” value in assay [2] is “effectively induces apoptosis”.

With DAEQAA, the “effect on apoptosis induction” value in assay [2] is reported as “unable to induce apoptosis in cancer cells”.

As to “DVEQVV (DVEQVV-NH2) [Val-substituted peptide having I50V/W53V/F54V substitutions relative to the native p53(49-54) peptide]”, in assay [1], the “binding affinity to mdm2 as indicated by chemical shift perturbation” value is reported as “low binding affinity to mdm2”. In addition, the “changes in chemical shift of 15N-mdm2(3-109) after addition of the peptide” value in assay [1] (15N-1H HSQC) is “small change in chemical shift”.
